{"source": "paper PMC8965321", "molecular_target": "GP46 protein of Lactococcus lactis phage vB_Llc_bIBBF13 (F13), purified, SUMO tag removed (Lactococcus lactis phage vB_Llc_bIBBF13 (F13))", "test": "SEC-MALS; GP46F13 100 ul injected at 1.5 mg/ml on Superdex 200 Increase 10/300, room temperature, 0.5 ml/min, 50 mM Tris-HCl pH 8, 500 mM NaCl, 20 mM imidazole, no cofactors", "data": [{"substance": "GP46 protein of Lactococcus lactis phage vB_Llc_bIBBF13 (F13), purified, SUMO tag removed (enzyme)", "values": [{"measurement": "stoichiometry N", "value": 2}]}]}
